According to patent US20230038521A1 (INSTITUTE OF SCIENCE TOKYO, published 2023):

T1: human HMGB1 protein (human, UniProt P09429 1-215)
T1 construct: Non-denatured protein, used as analyte in SPR and added to neurons in the MARCKS phosphorylation assay; also called High Mobility Group Box 1
T1 sequence (looked up): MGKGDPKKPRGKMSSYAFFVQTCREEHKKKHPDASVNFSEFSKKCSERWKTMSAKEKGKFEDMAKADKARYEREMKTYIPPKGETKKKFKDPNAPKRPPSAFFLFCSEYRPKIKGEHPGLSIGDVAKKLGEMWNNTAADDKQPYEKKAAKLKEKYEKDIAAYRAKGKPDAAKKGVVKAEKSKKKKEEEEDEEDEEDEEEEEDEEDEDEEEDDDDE


Target: T1, human HMGB1 protein
Assay: SPR, Biacore T100, antibody immobilized on the chip, human HMGB1 as analyte
Experimental: The interaction between the human monoclonal antibody group of the present invention and human HMGB1 protein was compared and examined using SPR. Specifically, using a sensor chip on which each human monoclonal antibody of the present invention was immobilized and human HMGB1 protein as an analyte, the interaction was measured over time with a surface plasmon resonance sensor (“Biacore T100”, manufactured by GE healthcare), to calculate an equilibrium dissociation constant (KD value) as an index of the antibody affinity.

Kd	Binder
0.0217 nM	monoclonal antibody #127 (antibody, human IgG1, kappa, V domains shown, Human IgG from the ADLib system (DT40 cell library); kappa light chain) VH: not shown VL: DIQMTQSPSSLSASVGDRVTITCRASQSVSSYLAWYQQKPGKAPKLLIYEASNLQAGVPSRFSGSGSGTDFTLTINSLQPEDFATYYCLQHNSNPLTFGQGTKLEIKT
5.54 nM	monoclonal antibody #213-001 (antibody, human IgG1, kappa, V domains shown, Human IgG from the ADLib system; kappa light chain) VH: EVQLVQSGAEVKKPGSSVKVSCKASGGTFSSYAISWVRQAPGQGLEWMGGIIPIFGRANYAQKFQGRVTITADESTSTAYMELSSLRSEDTAVYYCASLVTDYWGQGTLVTVSS VL: DIQMTQSPSSLSASTGDRVTITCRASQGISSYLAWYQQKPGKAPKLLIYAASTLQSGVPSRFSGSGSGTDFTLTISSLQPEDFATYYCQQANSFPITFGQGTRLEIKT
